Here are results for 5 compounds from PMC10206079, “Bioinformatics of cyanophycin metabolism genes and characterization of promiscuous isoaspartyl dipeptidases that catalyze the final step of cyanophycin degradation” (Scientific Reports, 2023).

For assay [1], the target named is Leucothrix mucor DSM2157 isoaspartyl dipeptidase (LmIadA), as crystallised (Leucothrix mucor DSM2157). Kind of assay: crystal structure; LmIadA 20 mg/ml, sitting drop, 0.56 M NaH2PO4 and 1.04 M K2HPO4, 22 °C; 1.8 Å; molecular replacement with PDB 1YBQ.
Another assay deals with T1, LmIadA (Leucothrix mucor, UniProt A0AA82WPE9).
T1 construct: C-terminal TEV site and 8xHis tag (cut for structural work only); expressed in E. coli BL21(DE3); homooctamer, zinc enzyme
Briefly: coupled Asp release assay (aspartate aminotransferase / malate dehydrogenase, NADH at […] nm). Format: biochemical. The note with it: 1 mM dipeptide, 500 nM enzyme, 100 mM HEPES pH 8.2, 20 mM KCl.

Assay [2] deals with Leucothrix mucor DSM2157 isoaspartyl dipeptidase (LmIadA), purified enzyme as examined in solution (Leucothrix mucor DSM2157). Briefly: not stated; purified enzyme in solution; shown in Supplementary Fig. S2; the method is not given.
In assay [3] the target is Roseivivax halodurans DSM15395 isoaspartyl aminopeptidase (RhIaaA), heterodimer of subunits a and b (Roseivivax halodurans DSM15395). The description is as above.
The target is the same in assay [4]. Kind of assay: crystal structure; RhIaaA 10 mg/ml, sitting drop, 0.1 M bis-tris propane pH 8.5, 0.2 M disodium malonate, 25% PEG3350, 4 °C; 2.7 Å; molecular replacement with PDB 2ZAL.

As to “Leucothrix mucor DSM2157 isoaspartyl dipeptidase (LmIadA), as crystallised (enzyme)”, the stoichiometry N (usually a count of units in the complex or per binding partner) in assay [1] came to 8.
Turning to `NCCCC[C@H](NC(=O)C[C@H](N)C(=O)O)C(=O)O` [β-Asp-Lys], the “coupled Asp release assay (aspartate aminotransferase / malate dehydrogenase, NA)” value at LmIadA is reported as “it displayed no apparent preference towards β-Asp-Arg/Lys (Fig. 2a)”.
Take “Leucothrix mucor DSM2157 isoaspartyl dipeptidase (LmIadA), purified enzyme as examined in solution”: in assay [2], the stoichiometry N stood at 8.
`N=C(N)NCCC[C@H](NC(=O)C[C@H](N)C(=O)O)C(=O)O` [β-Asp-Arg]: the “coupled Asp release assay (aspartate aminotransferase / malate dehydrogenase, NA)” value at LmIadA is “it displayed no apparent preference towards β-Asp-Arg/Lys (Fig. 2a)”.
Consider “Roseivivax halodurans DSM15395 isoaspartyl aminopeptidase (RhIaaA), heterodimer of subunits a and b (complex)”, for which the stoichiometry N in assay [3] and in assay [4] was 2 throughout.
